Results: patent US7981423B2, “Rage fusion proteins” (Transtech Pharma, Inc., priority 2004, dated 2011)

Legend:
[1] = test system: Zucker diabetic rats; experiment: Diabetic rat model of restenosis (balloon injury of left common carotid artery); format: in vivo
Description: In these experiments, balloon injury of left common carotid artery was performed in Zucker diabetic and nondiabetic rats using standard procedure. […] A maintenance dose was delivered every other day until day 7 after injury (i.e., at day 1, 3, 5 and 7 after injury). The maintenance dose was high=1 mg/animal for one group, or low=0.3 mg/animal for the second group. To measure vascular smooth muscle cell (VSMC) proliferation, animals were sacrificed at 4 days and 21 days after injury.
For the measurement of cell proliferation, 4 day animals received intraperitoneal injection of bromodeoxyuridine (BrDdU) 50 mg/kg at 18, 12, and 2 hours before euthanasia. After sacrifice, the entire left and right carotid arteries were harvested. Specimens were stored in Histochoice for at least 24 hours before embedding. Assessment of VSMC proliferation was performed using mouse anti-BrdU monoclonal antibody. A fluorescence labeled goat anti-mouse secondary antibody was applied. The number of BrdU-positive nuclei per section were counted by two observers blinded to the treatment regimens.
The remaining rats were sacrificed at 21 days for morphometric analysis. Morphometric analyses were performed by an observer blinded to the study groups, using computerized digital microscopic planimetry software Image-Pro Plus on serial sections, ([…]) carotid arteries stained by Van Gieson staining. All data were expressed as mean±SD. Statistical analysis was performed with use of SPSS software. Continuous variables were compared using unpaired t tests. A values of P≦0.05 was considered to be statistically significant.

[2] = biological target: T1, S100b (S100) (Homo sapiens, UniProt P04271); experiment: In vitro ligand binding ELISA, immobilized S100b; conditions: various dilutions of fusion protein; FIG. 7
T1 sequence (P04271 1-92): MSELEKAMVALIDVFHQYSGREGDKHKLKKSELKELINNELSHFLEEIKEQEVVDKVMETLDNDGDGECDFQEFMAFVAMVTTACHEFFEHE
Description: For example, the RAGE fusion protein may be used in a binding assay to identify potential RAGE ligands. In one example embodiment of such a binding assay, a known RAGE ligand may coated onto a solid substrate (e.g., Maxisorb plates) at a concentration of about 5 micrograms per well, where each well contains a total volume of about 100 microliters (μL). The plates may be incubated at 4° C. overnight to allow the ligand to absorb. Alternatively, shorter incubation periods at higher temperature (e.g., room temperature) may be used. […] The fusion protein bound to the immobilized ligand may be detected in a variety of ways. […] The bound complex may be detected by adding the alkaline phosphatase substrate, para-nitrophenylphosphate (PNPP), and measuring conversion of PNPP to para-nitrophenol (PNP) as an increase in absorbance at 405 nm. […] Binding was detected by the addition of an immunodetection complex containing a monoclonal mouse anti-human IgG1 diluted 1:11,000 to a final assay concentration (FAC) of 21 ng/100 μL, a biotinylated goat anti-mouse IgG diluted 1:500, to a FAC of […], and an avidin-linked alkaline phosphatase. […] Binding of the complex to the immobilized fusion protein was quantified by measuring conversion of PNPP to para-nitrophenol (PNP) which was-measured spectrophotornetrically at 405 nm. […]

[3] = High dose 1.0 mg/animal qod × 4, loading dose 3 mg/animal, IP, 21 days, mean±SD
[4] = Low dose 0.3 mg/animal qod × 4, loading dose 3 mg/animal, IP, 21 days, mean±SD

B1: TTP-4000: four domain RAGE fusion protein (SEQ ID NO: 32): human RAGE amino acids 1-251 linked to CH2 and CH3 domains of human IgG (protein)
chain: MAAGTAVGAWALVLSLWGAVVGAQNITARIGEPLVLKCKGAPKKPPQRLEWKLNTGRTEAWKVLSPQGGGPWDSVARVLPNGSLFLPAVGIQDEGIFRCQAMNRNGKETKSNYRVRVYQIPGKPEIVDSASELTAGVPNKVGTCVSEGSYPAGTLSWHLDGKPLVPNEKGVSVKEQTRRHPETGLFTLQSELMVTPARGGDPRPTFSCSFSPGLPRHRALRTAPIQPRVWEPVPLEEVQLVVEPEGGAVAPPSVFLFPPKPKDTLMISRTPEVTCVVVDVSHEDPEVKFNWYVDGVEVHNAKTKPREEQYNSTYRVVSVLTVLHQDWLNGKEYKCKVSNKALPAPIEKTISKAKGQPREPQVYTLPPSRDELTKNQVSLTCLVKGFYPSDIAVEWESNGQPENNYKTTPPVLDSDGSFFLYSKLTVDKSRWQQGNVFSCSVMHEALHNHYTQKSLSLSPGK
B1 was tested. Which “vascular smooth muscle cell proliferation (BrdU proliferating cells, in words)” value ([1]; 4 days after injury, dose-responsive, FIG. 13B) did it give?
The value was “significantly reduced”.

And the Luminal area [1, 3]?
Its Luminal area is 0.16 ± 0.02 mm^2.

What about the Medial area [1, 3] of the same molecule?
The Medial area was 0.11 ± 0.01 mm^2.

And the I/M ratio [1, 4]?
Its I/M ratio is 1.61 ± 0.26.

And the Luminal area [1, 4]?
The Luminal area was 0.18 ± 0.04 mm^2.

And the Medial area [1, 4]?
Its Medial area is 0.11 ± 0.02 mm^2.

What about the “intima/media ratio (in words)” value ([1]; dose-responsive, FIG. 13A) of the same molecule?
The value was “significantly reduced”.

What about the “binding to immobilized S100b (absorbance at 405 nm)” value [2] of the same molecule?
The value was “specifically interact”.
